In US20230035798A1 (CAPELLA BIOSCIENCE, published 2023):

T1: recombinant human soluble LIGHT, amino acids 74-240 (R&D Systems 664-LI-025) (human, UniProt O43557 74-240)
T1 construct: range 74-240; also called 74-240 LIGHT; Soluble LIGHT 74-240
T1 chain: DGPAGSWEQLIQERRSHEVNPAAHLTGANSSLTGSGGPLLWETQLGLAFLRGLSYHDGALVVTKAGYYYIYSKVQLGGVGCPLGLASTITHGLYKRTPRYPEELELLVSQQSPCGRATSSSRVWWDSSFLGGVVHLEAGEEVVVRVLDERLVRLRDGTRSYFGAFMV


Columns and labels:
[1] = target: membrane LIGHT without residues 81-84 (EL4-NC-LIGHT cells) (human, UniProt O43557 1-240); assay: cell-based or functional assay
[2] = target: T2, human LIGHT (TNFSF14), full length, membrane-bound (214E allele) (human, UniProt O43557 1-240); assay: flow cytometry, EL4-LIGHT cells
T2 construct: also called membrane LIGHT; human membrane LIGHT
Target sequence in this assay (O43557 whole entry K214E): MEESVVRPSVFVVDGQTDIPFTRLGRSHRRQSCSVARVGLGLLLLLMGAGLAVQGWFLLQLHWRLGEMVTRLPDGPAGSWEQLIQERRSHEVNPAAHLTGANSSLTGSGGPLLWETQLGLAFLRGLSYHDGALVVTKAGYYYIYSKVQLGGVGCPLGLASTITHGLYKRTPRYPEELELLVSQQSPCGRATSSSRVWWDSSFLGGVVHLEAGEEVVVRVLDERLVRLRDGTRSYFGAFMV

[3] = target: T1, recombinant human soluble LIGHT, amino …; assay: native mass spectrometry, LIGHT:antibody 1:5
Method: The LIGHT protein (R&D Systems 664-LI-025) was solubilised in PBS buffer at a final concentration of 4 μM, whereas the mAbs were maintained at 20 μM in PBS. The samples were buffer exchanged into ammonium acetate pH 7.4 at different concentrations via a column with a cut-off of 40 kDa prior to mass spectrometry optimisation. […] Samples were stored at 4° C. and were used within one week. The antibodies were diluted to 1 μM prior to MSanalysis. For complex formation the LIGHT protein was incubated with each antibody separately in 1:5 ratio on ice and native mass measurements were performed 30 min after incubation.
Native mass spectroscopy was utilised to determine the ratio of mAb bound to native trimeric LIGHT. The measured mass of 3B04 (IgG4) was 147256±0.7 Da and the F19 anti-LIGHT mAb, (IgG4 mAb from EP2292663) was 147364±6.6 Da. Unlike the monoclonal antibodies the LIGHT protein was highly heterogeneous as expected, due to post-translational glycosylation. Two major populations of the light protein were recorded with measured masses of 68 kDa and 71 kDa. Both of these proteoforms are higher in mass than the theoretical trimeric mass of the protein, 62827.38 Da. […] In the case of LIGHT binding with 3B04, the stoichiometry can be assigned to one antibody per one LIGHT protein (masses of 219630±221 Da and 216960±380 were recorded).

[4] = target: T2, human LIGHT (TNFSF14), full length, …; assay: KD calculated from EC50 on EL4-LIGHT cells, flow cytometry
[5] = target: T2, human LIGHT (TNFSF14), full length, …; assay: flow cytometry, mAb binding to EL4 cells stably expressing human LIGHT [lower panel]
[6] = target: T2, human LIGHT (TNFSF14), full length, …; assay: flow cytometry, mAb binding to EL4 cells stably expressing human LIGHT [upper panel]

Chain of membrane LIGHT without residues 81-84 (EL4-NC-LIGHT cells) (O43557 other isoform, or with tags, fused parts or gaps): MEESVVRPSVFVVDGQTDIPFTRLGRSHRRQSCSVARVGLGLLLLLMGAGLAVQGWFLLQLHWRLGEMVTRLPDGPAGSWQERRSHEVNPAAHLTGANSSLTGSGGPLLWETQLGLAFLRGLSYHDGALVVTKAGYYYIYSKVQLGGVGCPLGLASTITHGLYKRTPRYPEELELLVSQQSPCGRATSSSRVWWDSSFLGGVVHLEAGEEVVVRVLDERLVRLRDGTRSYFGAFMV

Binder	IC50, inhibition of IL-8 secretion from HT-29 cells (EL4-NC-LIGHT cells) [1]	EC50 [2]	stoichiometry, antibodies per LIGHT trimer [3]	Kd [4]	EC50 (read off the curve) [5]	EC50 (read off the curve) [6]
3B04 (antibody, human IgG4, V domains shown, chimeric: mouse variable domains on human IgG4 HC (S-to-P and L-to-E at 248) and human CL; also called Parental 3B04; 3B04 chimeric) VH: QVQLQQPGAELVRPGASVTLSCKASGYTFTDYEMHWVKQTPVHGLEWIGEIDPETGDTAYSQKFKGKATLTADKSSSTAYMEFRSLTSEDSAVYYCSRETDYFFDYWGQGTTLTVSS VL: DIQMTQTPASLSASVGETVTITCGASENIYGALNWYQRKQGKSPQLLIYGATNLADGMSSRFSGSGSGRQYSLKISSLHPDDFATYYCQNVLTTPWTFGGGTKLEIKR	0.05 nM	0.12 nM	1 antibodies per LIGHT trimer	0.15 nM	~0.2 nM	~0.1 nM
3D12 (antibody, human IgG4, V domains shown, chimeric: mouse variable domains on human IgG4 HC (S-to-P and L-to-E at 248) and human CL; also called Parental 3D12; 3D12 chimeric) VH: QVQLQQPGAELVRPGASVTLSCKASDYTFTDSEIHWVKQTPVHGLEWIGEIDPETGGTAYNQKFKGKATLTADKSSSTAYMELRSLTSEDSAVYYCSRETDYFFDYWGQGTTLTVSS VL: DIQMTQSPASLSASVGETVTITCGASENIYGALNWYQRKQGKSPQLLIYGATNLADGMSSRFSGSGSGRQYSLKISSLHPDDVATYYCQNVLSTPWTFGGGTKLEIKR	0.32 nM	0.08 nM		0.2 nM	~0.2 nM	
